Laboratory results from article PMC10980018.

Target: HKU5-20s trimeric ectodomain with 2P stabilizing mutations (merbecovirus HKU5-20s (host Pipistrellus abramus))
Test: cryo-EM structure

HKU5-20s trimeric ectodomain with 2P stabilizing mutations (domain or fragment)
stoichiometry N: 3
